Reference: article PMC2791401

Molecular target: p190RhoGAP-A (endogenous) (human (endogenous in HeLa)) (UniProt Q9NRY4)
Assay: co-IP

Chain of UniProt Q9NRY4 (Q9NRY4 whole entry): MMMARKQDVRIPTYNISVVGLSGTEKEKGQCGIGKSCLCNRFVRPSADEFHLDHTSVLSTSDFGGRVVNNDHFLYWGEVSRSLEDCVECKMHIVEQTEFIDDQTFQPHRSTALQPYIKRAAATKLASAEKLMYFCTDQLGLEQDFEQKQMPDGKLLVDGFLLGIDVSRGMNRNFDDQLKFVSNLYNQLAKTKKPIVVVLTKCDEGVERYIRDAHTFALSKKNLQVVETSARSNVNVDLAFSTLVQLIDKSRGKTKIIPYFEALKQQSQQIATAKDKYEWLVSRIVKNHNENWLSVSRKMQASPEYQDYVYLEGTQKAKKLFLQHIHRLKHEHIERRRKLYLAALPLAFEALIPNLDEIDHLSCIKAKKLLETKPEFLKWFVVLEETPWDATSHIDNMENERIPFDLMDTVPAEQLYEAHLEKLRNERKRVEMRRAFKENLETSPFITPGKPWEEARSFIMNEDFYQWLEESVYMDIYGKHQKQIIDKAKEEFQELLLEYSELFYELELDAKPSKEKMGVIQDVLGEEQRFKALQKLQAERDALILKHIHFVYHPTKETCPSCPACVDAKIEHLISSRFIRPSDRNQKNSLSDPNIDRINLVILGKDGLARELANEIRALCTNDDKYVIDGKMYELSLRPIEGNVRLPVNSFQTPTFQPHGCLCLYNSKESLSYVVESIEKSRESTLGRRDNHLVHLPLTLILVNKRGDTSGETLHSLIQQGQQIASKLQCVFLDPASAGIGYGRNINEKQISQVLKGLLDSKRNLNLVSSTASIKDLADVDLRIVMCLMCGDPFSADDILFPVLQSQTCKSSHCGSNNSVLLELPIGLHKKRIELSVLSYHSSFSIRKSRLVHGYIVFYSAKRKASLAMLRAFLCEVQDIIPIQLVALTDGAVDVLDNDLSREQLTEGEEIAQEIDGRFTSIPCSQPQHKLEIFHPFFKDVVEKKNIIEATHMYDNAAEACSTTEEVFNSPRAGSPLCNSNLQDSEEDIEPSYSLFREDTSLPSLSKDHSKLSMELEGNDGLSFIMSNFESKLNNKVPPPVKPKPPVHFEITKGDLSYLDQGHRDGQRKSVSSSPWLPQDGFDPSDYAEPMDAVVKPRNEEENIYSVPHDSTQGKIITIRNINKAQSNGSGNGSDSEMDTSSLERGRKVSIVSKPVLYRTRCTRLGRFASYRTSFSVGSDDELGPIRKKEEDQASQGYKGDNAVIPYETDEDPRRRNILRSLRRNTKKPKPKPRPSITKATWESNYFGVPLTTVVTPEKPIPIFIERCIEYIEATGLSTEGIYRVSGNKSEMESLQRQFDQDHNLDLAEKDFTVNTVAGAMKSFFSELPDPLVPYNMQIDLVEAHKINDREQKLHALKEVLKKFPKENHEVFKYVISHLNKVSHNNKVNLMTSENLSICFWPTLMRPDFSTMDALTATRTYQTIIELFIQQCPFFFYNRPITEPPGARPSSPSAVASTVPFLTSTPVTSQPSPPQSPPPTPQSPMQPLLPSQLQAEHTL

FLAG-tagged wild type ECT2 (pCEV29F3-ECT2) (natural protein)
abundance of the complex, percent of total p190 or ECT2: 2 to 4%

FLAG-tagged ECT2N (amino acids 1-334) (domain or fragment)
IP/WL (amount co-immunoprecipitated by anti-p190 vs. total protein expressed): 0.2

FLAG-tagged ECT2C (amino acids 414-883) (domain or fragment)
IP/Total (amount co-immunoprecipitated by anti-p190 vs. total protein expressed): 1.5
